T1: LPL on LPL-expressing cells (Example 1)
T1 sequence (P06858 28-475, species assumed, looked up): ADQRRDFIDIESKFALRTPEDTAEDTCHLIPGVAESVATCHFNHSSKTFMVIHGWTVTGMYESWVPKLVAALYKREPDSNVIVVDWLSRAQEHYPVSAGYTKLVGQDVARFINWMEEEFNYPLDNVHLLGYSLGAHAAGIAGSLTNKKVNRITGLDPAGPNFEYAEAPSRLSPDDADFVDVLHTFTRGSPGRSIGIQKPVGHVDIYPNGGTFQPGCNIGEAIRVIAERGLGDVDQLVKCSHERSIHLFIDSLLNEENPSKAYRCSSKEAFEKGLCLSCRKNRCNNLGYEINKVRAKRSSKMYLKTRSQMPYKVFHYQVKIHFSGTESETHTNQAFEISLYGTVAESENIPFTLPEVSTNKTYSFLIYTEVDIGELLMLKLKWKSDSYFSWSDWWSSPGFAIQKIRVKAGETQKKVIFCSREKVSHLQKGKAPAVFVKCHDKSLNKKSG

B1: human ANGPTL3 (ligand)
chain: SRIDQDNSSFDSLSPEPKSRFAMLDDVKILANGLLQLGHGLKDFVHKTKGQINDIFQKLNIFDQSFYDLSLQTSEIKEEEKELRRTTYKLQVKNEEVKNMSLELNSKLESLLEEKILLQQKVKYLEEQLTNLIQNQPETPEHPEVTSLKTFVEKQDNSIKDLLQTVEDQYKQLNQQHSQIKEIENQLRRTSIQEPTEISLSSKPRAPRTTPFLQLNEIRNVKHDGIPAECTTIYNRGEHTSGMYAIRPSNSQVFHVYCDVISGSPWTLIQHRIDGSQNFNETWENYKYGFGRLDGEFWLGLEKIYSIVKQSNYVLRIELEDWKDNKHYIEYSFYLGNHETNYTLHLVAITGNVPNAIPENKDLVFSTWDHKAKGHFNCPEGYSGGWWWHDECGENNLNGKYNKPRAKSKPERRRGLSWKSQNGRLYSIKSTKMLIHPTDSESFE
B2: human ANGPTL3/8 complex (other)
chain 1: SRIDQDNSSFDSLSPEPKSRFAMLDDVKILANGLLQLGHGLKDFVHKTKGQINDIFQKLNIFDQSFYDLSLQTSEIKEEEKELRRTTYKLQVKNEEVKNMSLELNSKLESLLEEKILLQQKVKYLEEQLTNLIQNQPETPEHPEVTSLKTFVEKQDNSIKDLLQTVEDQYKQLNQQHSQIKEIENQLRRTSIQEPTEISLSSKPRAPRTTPFLQLNEIRNVKHDGIPAECTTIYNRGEHTSGMYAIRPSNSQVFHVYCDVISGSPWTLIQHRIDGSQNFNETWENYKYGFGRLDGEFWLGLEKIYSIVKQSNYVLRIELEDWKDNKHYIEYSFYLGNHETNYTLHLVAITGNVPNAIPENKDLVFSTWDHKAKGHFNCPEGYSGGWWWHDECGENNLNGKYNKPRAKSKPERRRGLSWKSQNGRLYSIKSTKMLIHPTDSESFEAAADYKDDDDK
chain 2: APMGGPELAQHEELTLLFHGTLQLGQALNGVYRTTEGRLTKARNSLGLYGRTIELLGQEVSRGRDAAQELRASLLETQMEEDILQLQAEATAEVLGEVAQAQKVLRDSVQRLEVQLRSAWLGPAYREFEVLKAHADKQSHILWALTGHVQRQRREMVAQQHRLRQIQERLHTAALPA

Biological target: T1, LPL on LPL-expressing cells (Example 1)
Assay: cell-based or functional assay

Binder | EC50 in the LPL assay (inhibition of LPL) [nM]
B1 | 21.5
B2 | 0.54

Source: patent US20200199212A1 (Eli Lilly, published 2020)
